{
  "source": "patent US20260027190A1",
  "about": "“OVARIAN TUMOR DEUBIQUITINASE OXIDATION AND USES THEREOF” (The University of Vermont and State Agricultural College, priority 2022, published 2026)",
  "molecules": {"B1": {"name": "GLRX: recombinant wild-type glutaredoxin protein, deglutathionylating enzyme, administered directly to cells (protein, UniProt P35754 2-106, looked up)", "Glutaredoxin-1": "AQEFVNCKIQPGKVVVFIKPTCPYCRRAQEILSQLPIKQGLLEFVDITATNHTNEIQDYLQQLTGARTVPRVFIGKDCIGGCSDLVSLQQSGELLTRLKQIGALQ"}},
  "type_in_all_cases": "cell-based",
  "key": {"[1]": {"tested_on": "mouse tracheal epithelial (MTE) cells", "assay": "Total PSSG in MTE cells treated with recombinant GLRX", "conditions": "direct administration of recombinant protein to MTE cells", "method": "OTUB1 was one of the PSSG targets detected in IL1B-stimulated epithelial cells raising the possibility that S-glutathionylation of OTUB1 affects the stability of SLC7A11. To investigate this, immunoprecipitation of GSH followed by Western Blotting of OTUB1 in MTE cells treated with vehicle or IL1B was performed. Dithiothreitol (DTT) was incubated with cell lysates prior to immunoprecipitation as a negative control. OTUB1 levels from whole cell lysates were used as the input control. Increases in OTUB1 S-glutathionylation (OTUB1-SSG) in response to IL1B were observed, with further increases occurring in cells lacking Glrx (FIG. 4G), consistent with the role of GLRX as a deglutathionylating enzyme. Western blots were performed using cells treated with the WT- or C23S-mutant GLRX recombinant protein to examine the presence of glutaredoxin (FIG. 4H) and total PSSG (FIG. 4I) (P-value*<0.05, **<0.01, ***<0.001, ****<0.0001). […] Glutathione was evaluated in MTE cells treated with recombinant WT- or C23S-mutant GLRX (FIG. 4J) and glutamate in cell culture supernatant of MTE cells treated with WT or the C23S mutant GLRX was also evaluated (FIG. 4K). […]\nCell lysates were prepared in 100 mM potassium phosphate buffer containing 0.6% sulfosalicylic acid, 1 mM ethylenediaminetetraacetic acid (EDTA) and 0.01% triton-x-100. […] Kinetic absorbance was measured every minute at 412 nm for 20 minutes. […]"}, "[2]": {"tested_on": "H522 cells", "assay": "Synergy of GLRX and cisplatin in killing of H522 cells (Synergy Finder)", "conditions": "Chou-Talalay method (Synergy Finder)"}, "[3]": {"tested_on": "OTUB1 and UBCH5A", "assay": "Interaction between OTUB1 and UBCH5A", "conditions": "FIG. 14D", "excerpt": "OTUB1 was previously shown to interfere with ubiquitination and subsequent proteasomal degradation of SLC7A11. Overexpression of OTUB1 decreased ubiquitinated SLC7A11 (FIG. 17). […] The OTUB1-mediated attenuation of ubiquitination can occur through multiple mechanisms. OTUB1 can act as a canonical deubiquitinase that cleaves K48 chains. Alternatively, OTUB1 also can inhibit the function of E2 conjugating enzymes, including UBCH5 and OTUB1 has been found in a complex with E2 enzymes. Additionally, binding of E2 enzymes to OTUB1 can also promote OTUB1 deubiquitinase activity dependent on the ratio of ubiquitin-charged E2 to uncharged E2 enzyme and levels of free ubiquitin. OTUB1 D88 binds E2 enzymes and suppresses Ub-conjugating activity. Stabilization of SLC7A11 by OTUB1 has been speculated to involve directly binding between OTUB1 and SLC7A11 as well as the inhibition of E2 enzymes. […] These collective observations, along with observed increases in GSH following expression of OTUB1-C91S (FIG. 6C) support a non-canonical role of OTUB1 in augmenting GSH. […] To address this possible scenario, the present disclosure determined whether OTUB1-S-glutathionylation affected the interaction between OTUB1 and UBCH5A which requires the N-terminal region containing C23. […]"}},
  "data": [
    {"molecule": "B1", "values": [
      {"measurement": "overall PSSG", "setting": "[1]", "value": "decreased"},
      {"measurement": "synergy with cisplatin (ZIP Score)", "setting": "[2]", "value": "> 10"},
      {"measurement": "interaction between OTUB1 and UBCH5A", "setting": "[3]", "value": "decreases"}
    ]}
  ]
}
